{"source": "the supplement of paper PMC10567573", "parents": {"B1": {"name": "ZNF263 (parent)", "chain": "LLRHQRIHTGERPYKCPECGKSFS"}}}
{"variants_of": "B1", "assay": "protein stability index of a GFP-peptide fusion (GPS, HEK-293T) (PSI 1-6); higher = more stable", "details": "c terminus: a fixed tail appended"}
{"variant": "LLRHQRIHTGERPYKCPECGKSFG", "note": "[S24G]", "protein stability index": 3.65}
{"variant": "LLRHQRIHTGERPYKCPECGKSFN", "note": "[S24N]", "protein stability index": 2.34}
{"variant": "LLRHQRIHTGERPYKCPECGKSFI", "note": "[S24I]", "protein stability index": 2.11}
{"variant": "LLRHQRIHTGERPYKCPECGKSFW", "note": "[S24W]", "protein stability index": 2.59}
{"variant": "LLRHQRIHTGERPYKCPECGKSFF", "note": "[S24F]", "protein stability index": 2.01}
{"variant": "LLRHQRIHTGERPYKCPECGKSFP", "note": "[S24P]", "protein stability index": 2.24}
{"variant": "LLRHQRIHTGERPYKCPECGKSFM", "note": "[S24M]", "protein stability index": 2.28}
{"variant": "LLRHQRIHTGERPYKCPECGKSFR", "note": "[S24R]", "protein stability index": 1.94}
{"variant": "LLRHQRIHTGERPYKCPECGKSFD", "note": "[S24D]", "protein stability index": 2.36}
{"variant": "LLRHQRIHTGERPYKCPECGKSFV", "note": "[S24V]", "protein stability index": 2.62}
{"variant": "LLRHQRIHTGERPYKCPECGKSFA", "note": "[S24A]", "protein stability index": 1.92}
{"variant": "LLRHHRIHTGERPYKCPECGKSFS", "note": "[Q5H]", "protein stability index": 2.74}
{"variant": "LLRHIRIHTGERPYKCPECGKSFS", "note": "[Q5I]", "protein stability index": 2.13}
{"variant": "LLRHTRIHTGERPYKCPECGKSFS", "note": "[Q5T]", "protein stability index": 2.82}
{"variant": "LLRHVRIHTGERPYKCPECGKSFS", "note": "[Q5V]", "protein stability index": 1.74}
{"variant": "LLRHKRIHTGERPYKCPECGKSFS", "note": "[Q5K]", "protein stability index": 2.28}
{"variant": "LLRHGRIHTGERPYKCPECGKSFS", "note": "[Q5G]", "protein stability index": 1.87}
{"variant": "LLRHERIHTGERPYKCPECGKSFS", "note": "[Q5E]", "protein stability index": 3.06}
{"variant": "LLAHQRIHTGERPYKCPECGKSFS", "note": "[R3A]", "protein stability index": 3.21}
{"variant": "LLVHQRIHTGERPYKCPECGKSFS", "note": "[R3V]", "protein stability index": 2.3}
{"variant": "LLLHQRIHTGERPYKCPECGKSFS", "note": "[R3L]", "protein stability index": 1.63}
{"variant": "LLGHQRIHTGERPYKCPECGKSFS", "note": "[R3G]", "protein stability index": 2.68}
{"variant": "LLMHQRIHTGERPYKCPECGKSFS", "note": "[R3M]", "protein stability index": 2.04}
{"variant": "LLHHQRIHTGERPYKCPECGKSFS", "note": "[R3H]", "protein stability index": 2.56}
{"variant": "LLTHQRIHTGERPYKCPECGKSFS", "note": "[R3T]", "protein stability index": 3.27}
{"variant": "LLRHQRIHTGERPYLCPECGKSFS", "note": "[K15L]", "protein stability index": 1.98}
{"variant": "LLRHQRIHTGERPYHCPECGKSFS", "note": "[K15H]", "protein stability index": 2.29}
{"variant": "LLRHQRIHTGERPYPCPECGKSFS", "note": "[K15P]", "protein stability index": 1.74}
{"variant": "LLRHQRIHTGERPYDCPECGKSFS", "note": "[K15D]", "protein stability index": 2.74}
{"variant": "LLRHQRIHTGERPYMCPECGKSFS", "note": "[K15M]", "protein stability index": 2.15}
{"variant": "LLRHQRIHTGERPYWCPECGKSFS", "note": "[K15W]", "protein stability index": 2.03}
{"variant": "LLRHQRIHTGERPYCCPECGKSFS", "note": "[K15C]", "protein stability index": 2.16}
{"variant": "LLREQRIHTGERPYKCPECGKSFS", "note": "[H4E]", "protein stability index": 2.81}
{"variant": "LLRFQRIHTGERPYKCPECGKSFS", "note": "[H4F]", "protein stability index": 1.92}
{"variant": "LLRNQRIHTGERPYKCPECGKSFS", "note": "[H4N]", "protein stability index": 2.24}
{"variant": "LLRTQRIHTGERPYKCPECGKSFS", "note": "[H4T]", "protein stability index": 1.69}
{"variant": "LLRDQRIHTGERPYKCPECGKSFS", "note": "[H4D]", "protein stability index": 2.58}
{"variant": "LLRLQRIHTGERPYKCPECGKSFS", "note": "[H4L]", "protein stability index": 2.15}
{"variant": "LLRHQRIHTGEGPYKCPECGKSFS", "note": "[R12G]", "protein stability index": 3.4}
{"variant": "LLRHQRIHTGELPYKCPECGKSFS", "note": "[R12L]", "protein stability index": 2.69}
{"variant": "LLRHQRIHTGESPYKCPECGKSFS", "note": "[R12S]", "protein stability index": 2.11}
{"variant": "LLRHQRIHTGEMPYKCPECGKSFS", "note": "[R12M]", "protein stability index": 2.08}
{"variant": "LLRHQRIHTGEWPYKCPECGKSFS", "note": "[R12W]", "protein stability index": 1.7}
{"variant": "LLRHQRIHTGEFPYKCPECGKSFS", "note": "[R12F]", "protein stability index": 2.65}
{"variant": "LLRHQRIHTGENPYKCPECGKSFS", "note": "[R12N]", "protein stability index": 1.59}
{"variant": "LLRHQRIHTGEYPYKCPECGKSFS", "note": "[R12Y]", "protein stability index": 2.6}
{"variant": "LLRHQRIHTGEAPYKCPECGKSFS", "note": "[R12A]", "protein stability index": 2.11}
{"variant": "LLRHQRIHTGETPYKCPECGKSFS", "note": "[R12T]", "protein stability index": 2.45}
{"variant": "LLRHQRIHTTERPYKCPECGKSFS", "note": "[G10T]", "protein stability index": 3.22}
{"variant": "LLRHQRIHTPERPYKCPECGKSFS", "note": "[G10P]", "protein stability index": 2.15}
{"variant": "LLRHQRIHTLERPYKCPECGKSFS", "note": "[G10L]", "protein stability index": 2.3}
{"variant": "LLRHQRIHTHERPYKCPECGKSFS", "note": "[G10H]", "protein stability index": 2.61}
{"variant": "LLRHQRIHTRERPYKCPECGKSFS", "note": "[G10R]", "protein stability index": 2.46}
{"variant": "LLRHQRIHTDERPYKCPECGKSFS", "note": "[G10D]", "protein stability index": 2.56}
{"variant": "LLRHQRIHTGERPYKCPECGKSAS", "note": "[F23A]", "protein stability index": 2.87}
{"variant": "LLRHQRIHTGERPYKCPECGKSVS", "note": "[F23V]", "protein stability index": 2.53}
{"variant": "LLRHQRIHTGERPYKCPECGKSQS", "note": "[F23Q]", "protein stability index": 3.71}
{"variant": "LLRHQRIHTGERPYKCPECGKSMS", "note": "[F23M]", "protein stability index": 1.99}
{"variant": "LLRHQRIHTGERPYKCPECGKSDS", "note": "[F23D]", "protein stability index": 3.13}
{"variant": "LLRHQRIHTGERPYKCPECGKSES", "note": "[F23E]", "protein stability index": 2.38}
{"variant": "LLRHQRIHTGERPYKMPECGKSFS", "note": "[C16M]", "protein stability index": 2.36}
{"variant": "LLRHQRIHTGERPYKTPECGKSFS", "note": "[C16T]", "protein stability index": 3.4}
{"variant": "LLRHQRIHTGERPYKGPECGKSFS", "note": "[C16G]", "protein stability index": 3.9}
{"variant": "LLRHQRIHTGERPYKFPECGKSFS", "note": "[C16F]", "protein stability index": 2.48}
{"variant": "LLRHQRIHTGERPYKDPECGKSFS", "note": "[C16D]", "protein stability index": 3.46}
{"variant": "LLRHQRIHTGERPYKVPECGKSFS", "note": "[C16V]", "protein stability index": 2.16}
{"variant": "LLRHQRIHTGERPYKYPECGKSFS", "note": "[C16Y]", "protein stability index": 2.12}
{"variant": "LLRHQRIHTGERPYKIPECGKSFS", "note": "[C16I]", "protein stability index": 2.77}
{"variant": "LLRHQRIHTGERPYKNPECGKSFS", "note": "[C16N]", "protein stability index": 2.76}
{"variant": "LLRHQRIHTGERPEKCPECGKSFS", "note": "[Y14E]", "protein stability index": 2.85}
{"variant": "LLRHQRIHTGERPNKCPECGKSFS", "note": "[Y14N]", "protein stability index": 2.39}
{"variant": "LLRHQRIHTGERPTKCPECGKSFS", "note": "[Y14T]", "protein stability index": 2.25}
{"variant": "LLRHQRIHTGERPWKCPECGKSFS", "note": "[Y14W]", "protein stability index": 2.35}
{"variant": "LLRHQRIHTGERPVKCPECGKSFS", "note": "[Y14V]", "protein stability index": 2.38}
{"variant": "LLRHQRIHTGERPMKCPECGKSFS", "note": "[Y14M]", "protein stability index": 2.42}
{"variant": "LLRHQRIHTGERPSKCPECGKSFS", "note": "[Y14S]", "protein stability index": 1.95}
{"variant": "LLRHQRIHTGERPGKCPECGKSFS", "note": "[Y14G]", "protein stability index": 2.34}
{"variant": "LLRHQRIHTGERPAKCPECGKSFS", "note": "[Y14A]", "protein stability index": 2.74}
{"variant": "LLRHQRIHTGERPYKCKECGKSFS", "note": "[P17K]", "protein stability index": 2.15}
{"variant": "LLRHQRIHTGERPYKCFECGKSFS", "note": "[P17F]", "protein stability index": 1.94}
{"variant": "LLRHQRIHTGERPYKCNECGKSFS", "note": "[P17N]", "protein stability index": 2.39}
{"variant": "LLRHQRIHTGERPYKCDECGKSFS", "note": "[P17D]", "protein stability index": 2.19}
{"variant": "LLRHQDIHTGERPYKCPECGKSFS", "note": "[R6D]", "protein stability index": 2.78}
{"variant": "LLRHQVIHTGERPYKCPECGKSFS", "note": "[R6V]", "protein stability index": 2.78}
{"variant": "LLRHQCIHTGERPYKCPECGKSFS", "note": "[R6C]", "protein stability index": 5}
{"variant": "LLRHQEIHTGERPYKCPECGKSFS", "note": "[R6E]", "protein stability index": 2.74}
{"variant": "LLRHQTIHTGERPYKCPECGKSFS", "note": "[R6T]", "protein stability index": 2.85}
{"variant": "LLRHQQIHTGERPYKCPECGKSFS", "note": "[R6Q]", "protein stability index": 2.53}
{"variant": "LLRHQMIHTGERPYKCPECGKSFS", "note": "[R6M]", "protein stability index": 2.08}
{"variant": "LLRHQHIHTGERPYKCPECGKSFS", "note": "[R6H]", "protein stability index": 3.73}
{"variant": "LLRHQFIHTGERPYKCPECGKSFS", "note": "[R6F]", "protein stability index": 1.41}
{"variant": "LLRHQIIHTGERPYKCPECGKSFS", "note": "[R6I]", "protein stability index": 2.22}
{"variant": "LLRHQKIHTGERPYKCPECGKSFS", "note": "[R6K]", "protein stability index": 2.81}
{"variant": "LLRHQWIHTGERPYKCPECGKSFS", "note": "[R6W]", "protein stability index": 2.06}
